Laboratory results reported in patent US10759863B2, “Modulation of γδ T cells” (Sanford Burnham Prebys Medical Discovery Institute, priority 2013, dated 2020).

Experiments:
[1] = tested on: BTLA expression in γδT cells and ILCs; assay: Cytokine-induced BTLA expression in cultured iLN γδT cells and PP ILCs; type: cell-based, mice; conditions: for BTLA induction in RORγt+ γδT cells after culture with activating cytokines: iLN lymphocytes of Rorc(t)gfp/+ mice enriched for CD27− γδT cells, FIG. 17A
Procedure: (§1) Surface staining was performed on ice for 20-30 min. Intracellular staining was performed using the BD Cytofix/Cytoperm™ Kit according the manufacturer's instructions (BD Biosciences). Stained cells were acquired using a BD LSRFortessa™ equipped with 4 lasers (blue at 488 nm, yellow-green at 561 nm, red at 640 nm, violet at 405 nm). Antibodies in SI.
(§2) For IL-7 induced expansion iLN lymphocytes were cultured in RF10 media (RPMI+10% FBS, p/s, L-Glutamine) at 10^7/ml in 12-well plates for four days. For IL-7 induced BTLA expression iLN or PP lymphocytes were enriched for ILCs and CD27^− γδT cells and cultured in RF10 media in 24-well plates containing feeder adherent cells for two days. Following enrichment, cells from 3 animals were cultured in 1 ml in a single well. IL-7 (R&D Systems, Minneapolis, Minn.) was added at 10 ng/ml. For IL-17 and TNF production whole lymph node cells were cultured with or without 10 ng/ml IL-7 for 18 hours and then re-stimulated with PMA (50 ng/ml), ionomycin (750 ng/ml) and Golgi Stop™ (BD Biosciences) for 3.5 hours. TH17 differentiation was performed by isolating CD4^+ T cells from spleens and culturing in anti-CD3 (5 μg/ml) coated 24-well plates at 1.35×10^6/ml with anti-CD28 (2 μg/ml), IL-6 (20 ng/ml) and TGFβ1 (2 ng/ml). At day 5, cells were washed and re-stimulated with PMA+ionomycin and Golgi Stop™ (BD Biosciences) for 3.5 hours. For induction of human IL-22, tonsil lymphocytes were cultured in RF10 media at 1.5×10^6/ml in 24-well plates for 6 hours in the presence of 40 ng/ml IL-23 (eBiosciences) and 10 ng/ml IL-1β (R&D Systems). Golgi Stop™ (BD Biosciences) was added during the final 3 hours.
Jurkat cells were cultured at 10^5/100 μl in U-bottom wells for 24-48 hrs with either DMSO or the indicated concentrations of digoxin (Sigma-Aldrich). To test the effect of STAT5 in IL-7-induced BTLA expression, CD27^− gd T cells were enriched from lymph nodes of Rorc(t)^gfp/+ mice and cultured for two days in 24-well plates containing feeder adherent cells with no stimulus, or with IL-7 in the presence or absence of STAT inhibitor (EMD Millipore, Billerica, Mass.) at the indicated concentrations.

RORγt = assay: Digoxin treatment of RORγt-expressing Jurkat cells, BTLA expression; type: cell-based; conditions: digoxin vs DMSO, 24-48 hrs, FIG. 11B
Procedure: as §1
For qRT-PCR analysis, total RNA was prepared from FACS sorted populations using the Qiagen RNeasy Mini kit according to the manufacturer's instructions (Qiagen, Valencia, Calif.). RNA was reverse transcribed into cDNA using the iScript™ cDNA synthesis kit (Bio-Rad Laboratories, Hercules, Calif.) according to the manufacturer's instructions. Target genes were detected using intron-spanning primers (Invitrogen) and relative expression was measured using Power® SYBR Master mix (Life Technologies, Grand Island, N.Y.). Reactions were carried out in clear 384 plates using an ABI® 7900 Real-Time PCR System (Life Technologies). We calculated relative expression as follows: 2^−Dct, where Ct=cycle number, DCt=Ct (target gene)−Ct (house-keeping gene). A value of 1 means equal expression of target and house-keeping gene (L32). Oligo sequences (5′-3′):
Jurkat cells were cultured at 10^5/100 μl in U-bottom wells for 24-48 hrs with either DMSO or the indicated concentrations of digoxin (Sigma-Aldrich). […]

γδT cells [2] = assay: IL-17 and TNF production by lymph node γδT cells with or without IL-7; type: cell-based, mice; conditions: all γδT subsets, IL-7 10 ng/ml 18 hours then PMA/ionomycin; FIG. 5
Procedure: as §1
as §2, with “For induction of human IL-22, tonsil lymphocytes were cultured in RF10 media at 1.5×10^6/ml in 24-well plates for 6 hours in the presence of 40 ng/ml IL-23 (eBiosciences) and 10 ng/ml IL-1β (R&D Systems). Golgi Stop™ (BD Biosciences) was added during the final 3 hours.” left out

γδT cells [3] = assay: IL-7 induced expansion of iLN lymphocytes cultured ex vivo; type: cell-based, mice; conditions: IL-7 10 ng/ml, four days, vs untreated cultures; FIG. 4A
Procedure: as §2

[4] = iLN γδT cells and PP ILCs from Rorc(t)gfp/+ mice, IL-7 10 ng/ml, two days, vs untreated, FIG. 4G-K

IL-1β: cytokine, potent γδT cell activator
BTLA induction in RORγt+ γδT cells after culture with activating cytokines [1]: either no or only a minimal effect

C[C@H]1O[C@@H](O[C@H]2[C@@H](O)C[C@H](O[C@H]3[C@@H](O)C[C@H](O[C@H]4CC[C@@]5(C)[C@H](CC[C@@H]6[C@@H]5C[C@@H](O)[C@]5(C)[C@@H](C7=CC(=O)OC7)CC[C@]65O)C4)O[C@@H]3C)O[C@@H]2C)C[C@H](O)[C@@H]1O [digoxin]
BTLA expression at the mRNA level (RORγt): induced expression of BTLA
BTLA expression at the protein level (surface expression) (RORγt): induced expression of BTLA

B1: IL-23: cytokine, potent γδT cell activator (protein, UniProt Q9NPF7 20-189; P29460 23-328, looked up)
Interleukin-23 subunit alpha: RAVPGGSSPAWTQCQQLSQKLCTLAWSAHPLVGHMDLREEGDEETTNDVPHIQCGDGCDPQGLRDNSQFCLQRIHQGLIFYEKLLGSDIFTGEPSLLPDSPVGQLHASLLGLSQLLQPEGHHWETQQIPSLSPSQPWQRLLLRFKILRSLQAFVAVAARVFAHGAATLSP
Interleukin-12 subunit beta: IWELKKDVYVVELDWYPDAPGEMVVLTCDTPEEDGITWTLDQSSEVLGSGKTLTIQVKEFGDAGQYTCHKGGEVLSHSLLLLHKKEDGIWSTDILKDQKEPKNKTFLRCEAKNYSGRFTCWWLTTISTDLTFSVKSSRGSSDPQGVTCGAATLSAERVRGDNKEYEYSVECQEDSACPAAEESLPIEVMVDAVHKLKYENYTSSFFIRDIIKPDPPKNLQLKPLKNSRQVEVSWEYPDTWSTPHSYFSLTFCVQVQGKSKREKKDRVFTDKTSATVICRKNASISVRAQDRYYSSSWSEWASVPCS
BTLA induction in RORγt+ γδT cells after culture with activating cytokines [1]: either no or only a minimal effect

B2: IL-7: cytokine IL-7 (R&D Systems), added at 10 ng/ml (protein, UniProt P13232 26-177, looked up)
Interleukin-7: DCDIEGKDGKQYESVLMVSIDQLLDSMKEIGSNCLNNEFNFFKRHICDANKEGMFLFRAARKLRQFLKMNSTGDFDLHLLKVSEGTTILLNCTGQVKGRKPAALGEAQPTKSLEENKSLKEQKKLNDLCFLKRLLQEIKTCWNKILMGTKEH
number of BTLA+ cells [1, 4]: induced a higher number
surface BTLA expression [1, 4]: increased
frequency of IL-17 expressing γδT cells (γδT cells [2]): enhanced
frequency of TNF expressing γδT cells (γδT cells [2]): enhanced
viability of γδT cells within lymph node lymphocytes cultured ex vivo (γδT cells [3]): sustained viability
